Experimental data published in patent publication US20210087522.

How the values were obtained:
[1] = target: T1, APACP, ACP of the glycolipid PKS in Anabaena
T1 chain: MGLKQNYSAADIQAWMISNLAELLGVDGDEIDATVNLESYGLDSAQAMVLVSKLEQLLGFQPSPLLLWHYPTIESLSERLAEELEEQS

[2] = target: T2, SFACP, ACP of the FAS from Synechocystis
T2 chain: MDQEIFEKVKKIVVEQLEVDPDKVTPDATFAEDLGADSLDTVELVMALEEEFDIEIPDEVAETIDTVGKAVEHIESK

[3] = target: T3, APNPCP, CP of an uncharacterized NRP/PK gene cluster from Anabaena
T3 chain: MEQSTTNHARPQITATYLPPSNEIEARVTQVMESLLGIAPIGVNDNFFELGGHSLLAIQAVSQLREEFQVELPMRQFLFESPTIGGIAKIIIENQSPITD

[4] = target: T4, FNPCP, CP of an uncharacterized NRP gene cluster from Fischerella
T4 chain: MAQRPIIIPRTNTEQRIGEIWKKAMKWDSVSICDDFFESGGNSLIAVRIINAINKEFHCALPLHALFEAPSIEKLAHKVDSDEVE

[5] = target: T5, FisPCP, PCP of the shinorine gene cluster from Fischerella
T5 chain: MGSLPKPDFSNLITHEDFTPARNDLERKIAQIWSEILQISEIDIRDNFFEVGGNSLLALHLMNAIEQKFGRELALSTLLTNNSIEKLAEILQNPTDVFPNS

[6] = target: T6, SsPCP, PCP of a thaxtomin cluster from Streptomyces scabiei 87.22
T6 chain: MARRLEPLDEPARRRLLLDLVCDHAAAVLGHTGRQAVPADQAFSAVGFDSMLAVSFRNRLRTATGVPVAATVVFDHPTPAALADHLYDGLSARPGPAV

[7] = target: T7, MACP, CP of an uncharacterized NRP/PK gene cluster from M. aeruginosa NIES843
T7 chain: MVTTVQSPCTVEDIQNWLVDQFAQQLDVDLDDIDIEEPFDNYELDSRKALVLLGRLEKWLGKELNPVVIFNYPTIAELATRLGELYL

[8] = target: T8, AFACP, ACP of the FAS from Anabaena
T8 chain: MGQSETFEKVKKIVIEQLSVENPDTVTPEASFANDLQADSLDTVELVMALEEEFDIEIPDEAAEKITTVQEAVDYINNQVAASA

[9] = target: ScACP, ACP of a putative concanamycin gene cluster from Streptomyces coelicolor A(3)2
[10] = target: AprACP, ACP of the apratoxin (PK/NRP) gene cluster in Lyngbya sp.
[11] = target: T9, FNsACP, homolog of ArCPNp from Fischerella
T9 chain: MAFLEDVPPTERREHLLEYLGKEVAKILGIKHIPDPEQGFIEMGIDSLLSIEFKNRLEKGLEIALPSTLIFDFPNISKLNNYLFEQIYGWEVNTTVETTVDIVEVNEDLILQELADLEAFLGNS

B1: Sfp, phosphopantetheinyl transferase from Bacillus subtilis (protein)
chain: MKIYGIYMDRPLSQEENERFMTFISPEKREKCRRFYHKEDAHRTLLGDVLVRSVISRQYQLDKSDIRFSTQEYGKPCIPDLPDAHFNISHSGRWVIGAFDSQPIGIDIEKTKPISLEIAKRFFSKTEYSDLLAKDKDEQTDYFYHLWSMKESFIKQEGKGLSLPLDSFSVRLHQDGQVSIELPDSHSPCYIKTYEVDPGYKMAVCAAHPDFPEDITMVSYEELL
- Km [1]: 15.3 µM
- kcat [1]: 0.368 s⁻¹
- kcat/Km [1]: 25000 M⁻¹ s⁻¹
- phosphopantetheinylation of CP (apo to holo), LC-MS [1]: APPT, AvPPT, MPPT and Sfp functionalized all substrates
- Km [2]: 2.5 µM
- kcat [2]: 0.0367 s⁻¹
- kcat/Km [2]: 15000 M⁻¹ s⁻¹
- phosphopantetheinylation of CP (apo to holo), LC-MS [2]: APPT, AvPPT, MPPT and Sfp functionalized all substrates
- Km [3]: 12 µM
- kcat [3]: 0.0367 s⁻¹
- kcat/Km [3]: 3330 M⁻¹ s⁻¹
- phosphopantetheinylation of CP (apo to holo), LC-MS [3]: APPT, AvPPT, MPPT and Sfp functionalized all substrates
- Km [4]: 11.7 µM
- kcat [4]: 0.242 s⁻¹
- kcat/Km [4]: 20000 M⁻¹ s⁻¹
- phosphopantetheinylation of CP (apo to holo), LC-MS [4]: APPT, AvPPT, MPPT and Sfp functionalized all substrates
- Km [5]: 14 µM
- kcat [5]: 0.0283 s⁻¹
- kcat/Km [5]: 1670 M⁻¹ s⁻¹
- phosphopantetheinylation of CP (apo to holo), LC-MS [5]: APPT, AvPPT, MPPT and Sfp functionalized all substrates
- Km [6]: 7.9 µM
- kcat [6]: 0.278 s⁻¹
- kcat/Km [6]: 35000 M⁻¹ s⁻¹
- phosphopantetheinylation of CP (apo to holo), LC-MS [6]: APPT, AvPPT, MPPT and Sfp functionalized all substrates
- relative activity (most active PPTase = 100%) [6]: Among all PPTases, Sfp showed the highest relative activity toward ScACP and SsPCP
- Km [7]: 6.7 µM
- kcat [7]: 0.085 s⁻¹
- kcat/Km [7]: 13300 M⁻¹ s⁻¹
- phosphopantetheinylation of CP (apo to holo), LC-MS [7]: APPT, AvPPT, MPPT and Sfp functionalized all substrates
- Km [8]: 11.6 µM
- kcat [8]: 0.163 s⁻¹
- kcat/Km [8]: 13300 M⁻¹ s⁻¹
- phosphopantetheinylation of CP (apo to holo), LC-MS [8]: APPT, AvPPT, MPPT and Sfp functionalized all substrates
- Km [9]: 8.3 µM
- kcat [9]: 0.253 s⁻¹
- kcat/Km [9]: 30000 M⁻¹ s⁻¹
- phosphopantetheinylation of CP (apo to holo), LC-MS [9]: APPT, AvPPT, MPPT and Sfp functionalized all substrates
- relative activity (most active PPTase = 100%) [9]: Among all PPTases, Sfp showed the highest relative activity toward ScACP and SsPCP
- Km [10]: 9 µM
- kcat [10]: 0.0483 s⁻¹
- kcat/Km [10]: 5000 M⁻¹ s⁻¹
- phosphopantetheinylation of CP (apo to holo), LC-MS [10]: APPT, AvPPT, MPPT and Sfp functionalized all substrates
- Km [11]: 10.9 µM
- kcat [11]: 0.04 s⁻¹
- kcat/Km [11]: 3330 M⁻¹ s⁻¹
- phosphopantetheinylation of CP (apo to holo), LC-MS [11]: APPT, AvPPT, MPPT and Sfp functionalized all substrates

B2: SPPT, Sfp-like phosphopantetheinyl transferase (PPTase) from Synechocystis sp. PCC6803 (protein)
chain: MLPQPQIWLCPTDRPLIPGYQALLSSEEMARGERYQRPQDKQRFLTMRLALRILLARQLDCLPQQLQFTYGPQGKPELVDRERRSPWFNVAHSGNYGLIGLSTEGEIGVDLQIMLPKPHYLKLAKRFFAPQEVQQLESLEGEKRTKLFYQLWTAKEAFLKATGKGISGGLNQVIPDENLAKYQYLPDSGDTNHWRLSSQPLLADQGSNDNYWMAIAWCTNEVNQVESNYLPNIQPFQWPRNLDSLP
- Km [1]: 26.5 µM
- kcat [1]: 0.243 s⁻¹
- kcat/Km [1]: 8330 M⁻¹ s⁻¹
- phosphopantetheinylation of CP (apo to holo), LC-MS [1]: SPPT also phosphopantetheinylated all CP substrates except ScACP
- relative conversion (most active PPTase = 100%) [1]: SPPT promoted >71% relative conversion of eight cyanobacterial CPs
- Km [2]: 1.5 µM
- kcat [2]: 0.0233 s⁻¹
- kcat/Km [2]: 6500 M⁻¹ s⁻¹
- phosphopantetheinylation of CP (apo to holo), LC-MS [2]: SPPT also phosphopantetheinylated all CP substrates except ScACP
- relative conversion (most active PPTase = 100%) [2]: SPPT promoted >71% relative conversion of eight cyanobacterial CPs
- Km [3]: 17 µM
- kcat [3]: 0.0383 s⁻¹
- kcat/Km [3]: 1670 M⁻¹ s⁻¹
- phosphopantetheinylation of CP (apo to holo), LC-MS [3]: SPPT also phosphopantetheinylated all CP substrates except ScACP
- Km [4]: 7 µM
- kcat [4]: 0.168 s⁻¹
- kcat/Km [4]: 23300 M⁻¹ s⁻¹
- phosphopantetheinylation of CP (apo to holo), LC-MS [4]: SPPT also phosphopantetheinylated all CP substrates except ScACP
- Km [5]: 10 µM
- kcat [5]: 0.0417 s⁻¹
- kcat/Km [5]: 5000 M⁻¹ s⁻¹
- phosphopantetheinylation of CP (apo to holo), LC-MS [5]: SPPT also phosphopantetheinylated all CP substrates except ScACP
- Km [6]: 14.3 µM
- kcat [6]: 0.0167 s⁻¹
- kcat/Km [6]: 1000 M⁻¹ s⁻¹
- phosphopantetheinylation of CP (apo to holo), LC-MS [6]: SPPT also phosphopantetheinylated all CP substrates except ScACP
- relative activity (most active PPTase = 100%) [6]: the low or no activity toward MACP, SsPCP and ScACP
- Km [7]: 22 µM
- kcat [7]: 0.0717 s⁻¹
- kcat/Km [7]: 3330 M⁻¹ s⁻¹
- phosphopantetheinylation of CP (apo to holo), LC-MS [7]: SPPT also phosphopantetheinylated all CP substrates except ScACP
- relative activity (most active PPTase = 100%) [7]: the low or no activity toward MACP, SsPCP and ScACP
- Km [8]: 13.3 µM
- kcat [8]: 0.245 s⁻¹
- kcat/Km [8]: 18300 M⁻¹ s⁻¹
- phosphopantetheinylation of CP (apo to holo), LC-MS [8]: SPPT also phosphopantetheinylated all CP substrates except ScACP
- relative conversion (most active PPTase = 100%) [8]: SPPT promoted >71% relative conversion of eight cyanobacterial CPs
- phosphopantetheinylation of CP (apo to holo), LC-MS; not modified [9]: SPPT also phosphopantetheinylated all CP substrates except ScACP
- relative activity (most active PPTase = 100%) [9]: the low or no activity toward MACP, SsPCP and ScACP
- Km [10]: 12.9 µM
- kcat [10]: 0.218 s⁻¹
- kcat/Km [10]: 16700 M⁻¹ s⁻¹
- phosphopantetheinylation of CP (apo to holo), LC-MS [10]: SPPT also phosphopantetheinylated all CP substrates except ScACP
- relative conversion (most active PPTase = 100%) [10]: SPPT promoted >71% relative conversion of eight cyanobacterial CPs
- Km [11]: 14.1 µM
- kcat [11]: 0.025 s⁻¹
- kcat/Km [11]: 1670 M⁻¹ s⁻¹
- phosphopantetheinylation of CP (apo to holo), LC-MS [11]: SPPT also phosphopantetheinylated all CP substrates except ScACP
- relative conversion (most active PPTase = 100%) [11]: SPPT promoted >71% relative conversion of eight cyanobacterial CPs

B3: SePPT, Sfp-like phosphopantetheinyl transferase (PPTase) from Synechococcus elongatus PCC7942 (protein)
chain: MQRPNPSDAVPVPSIPSCDRGPIPNPVTWRTSPEPLFLSAQTVHLWRCSLTRSLSSAEQAIVAADCDRAQAYGSNRRHQFLCGRWWLRQLLSLYLPEEPADFRFQLSPTGKPELPQSNLCFNLSHSGSTLLIAIAWQPVGVDVEQPRSRSWLALARRYFPSAELAAMQQSTDCDRWGLASWVCKEAWIKAQGRTLANSLRHLQCAWTANGQPRLSGLGSEESQVQLLQVDPQEQLWAAIAMPAGWNYQTWTAAIIRKNH
- relative activity (most active PPTase = 100%) [2]: SePPT demonstrated strong activity toward two ACPs of FASs but no others
- phosphopantetheinylation of CP (apo to holo), LC-MS; no activity [3]: SePPT showed no activity toward APNPCP, MACP, ScACP, and SsPCP
- phosphopantetheinylation of CP (apo to holo), LC-MS; no activity [6]: SePPT showed no activity toward APNPCP, MACP, ScACP, and SsPCP
- phosphopantetheinylation of CP (apo to holo), LC-MS; no activity [7]: SePPT showed no activity toward APNPCP, MACP, ScACP, and SsPCP
- relative activity (most active PPTase = 100%) [8]: SePPT demonstrated strong activity toward two ACPs of FASs but no others
- phosphopantetheinylation of CP (apo to holo), LC-MS; no activity [9]: SePPT showed no activity toward APNPCP, MACP, ScACP, and SsPCP

B4: FPPT, Sfp-like phosphopantetheinyl transferase (PPTase) from Fischerella sp. PCC9339 (protein)
chain: MGSETNHLWLTAPTNLTLLPDDVHVWRISLDRPESELQALQTTLSSDEIARAQRFYFEQHRQRFVAGRGILRTILGRYLGVEPQAVEFTYELRGKPLLADRFADSGVSFNLSHSQDLALCGVSRNRKIGIDVEYMRSVSDVEALAERFFAPREYEVVRSLPSNQQQQVFFRYWTCKEAYLKAIGVGIVQLEKVEISLTLEQPAKLITDEEWSLIELVPGDHYLGAVAIAGQNLDLKYWQY
- phosphopantetheinylation of CP (apo to holo), LC-MS; no activity [3]: FPPT shared the same substrate scope as SePPT with the exception of its low activity toward SsPCP
- phosphopantetheinylation of CP (apo to holo), LC-MS; low activity [6]: FPPT shared the same substrate scope as SePPT with the exception of its low activity toward SsPCP
- relative activity (most active PPTase = 100%) [6]: FPPT was not competent to activate SsPCP, APACP, APNPCP, MACP, and ScACP
- phosphopantetheinylation of CP (apo to holo), LC-MS; no activity [7]: FPPT shared the same substrate scope as SePPT with the exception of its low activity toward SsPCP
- relative activity (most active PPTase = 100%) [7]: FPPT was not competent to activate SsPCP, APACP, APNPCP, MACP, and ScACP
- phosphopantetheinylation of CP (apo to holo), LC-MS; no activity [9]: FPPT shared the same substrate scope as SePPT with the exception of its low activity toward SsPCP
